Data taken from patent US9618524B2, “Method, composition, isolation and identification of a plaque particle and related biomarker” (Plaxgen Inc., priority 2012, dated 2017).

Key:
Test in all cases: Mass spectroscopy proteomics, semi-quantitative binding affinity of serum proteins (plaqueproteome, Table 2)
Conditions in all cases: higher number = stronger affinity
Tau plaque particles = tested on: Tau plaque particles; parameters: species or system human
Procedure: For Tau-74 (74-102) (Exon 3/Insert 2 domain) preparation, 1 mg of Tau-74 was suspended in 1 mL of PBS and the sample was incubated at 37° C. for 2 hrs. Similarly for preparing Tau-275 (275-305) (Repeat 2 domain) 1 mg of the peptide was suspended in 1 mL of PBS and the sample was incubated at 37° C. for 2 hrs. After incubation, all the samples were centrifuged for 5 min. at 5000 rpm to remove precipitate, if any, and the supernatant containing oligomers/aggregates were used for in vitro amyloid plaque particles formation assay. For detecting Tau plaque particles, Thioflavin S (Ex/Em=430 nm/550 nm) amyloid binding fluorescent dye (10 μg) was used in the assay.
Next, to isolate Tau plaque particles, as performed for Abeta-42 and Abeta-28 plaque particles isolation, diluted serum samples were used for incubation separately with Tau-45, Tau-74 and Tau-275 oligomers/aggregates. Each assay was performed in 1 mL reaction (800 μL of 50% plasma or serum) and 200 μL (30 μg) of each Tau aggregates and the mixtures were incubated at 37° C. for 1 hr. To the each mixture Thioflavin S dye (120 μg) was added and the sample was incubated for additional 30 min at 37° C. After the incubation, each sample was directly used for sample acquisition using flow cytometer (FACS ARIA II, BD Biosciences, San Jose, Calif.). After initial detection of Tau plaque particles, gates were drawn in the acquisition blot to separately sort and isolate fluorescently labeled Tau plaque particles.
(§1) For preparing trypsin digested peptide sequences, the isolated plaque particles were centrifuged at 10000 rpm for 5 min and the pellet containing plaque particles was resuspended in 100 μl PBS buffer. Stock solutions of digestion buffer (Ammonium Biocarbonate 50 mM), reducing buffer (DDT 100 mM) and alkylation buffer (lodoaceamide 100 mM) were prepared and stored at −20° C. for up to two months. For trypsin digestion, 100 μl of each plaque particles (2000 of Abeta-42, cholesterol, Tau and alpha-synuclein) were precipitated using cold acetone −80° C. by adding 4X's the volume. The samples were placed on dry ice for 10 min with intermittent vortex. Next, the samples were centrifuged at 4° C. at 10000 G for 10 min. Top layer of acetone was carefully removed from the tube with care not to disturb the plaque particles pellet. The samples were speed-vac for 10 min to ensure all acetone has been boiled away. The plaque particles pellet were reconstituted with 15 μl 8M Urea 100 mM Ammonium bicarbonate stock and 20 μl protease max solution. The protease max solution (Promega, Madison, Wis.) was prepared from stock by adding 60 μl 50 mM Ammonium bicarbonate and used for 3 solution digests (20 μl each). […] The tubes were incubated at 55° C. for 30 minutes. The tubes were then removed and brought to the room temperature followed by addition of 3.2 μl of 1M acrylamide and incubated at room temperature for 30 minutes. To the sample, 63 μL of 50 mM Ammonium bicarbonate was added for a final volume of 98 μl and 2 μl of trypsin (10 μg, Trypsin/Lys C Mix). After mixing the solution with pipet the samples were incubated at 37° C. overnight. After the overnight digest, the tryptic digest were quenched and acidified by adding 10 μl of 50% formic acid/water stock dilution. The samples were centrifuged at 10000 G for 2 minutes and purified using stage tip and used for MS/Mass analysis.
(§2) All MS/MS samples were analyzed using Sequest (Thermo Fisher Scientific, San Jose, Calif., USA; version 1.0). Sequest was set up to search the SUMS_uniprot_Human database (35847 entries) assuming the digestion enzyme strict trypsin. Sequest was searched with a fragment ion mass tolerance of 1.00 Da and a parent ion tolerance of 20 PPM. Propionamide of cysteine was specified in Sequest as a fixed modification. Oxidation of methionine and phospho of serine, threonine and tyrosine were specified in Sequest as variable modifications.

[1] = tested on: Low density cholesterol (Chl small) plaque particles; parameters: species or system human
Procedure: (§3) The goal was to isolate plaque particles synthesized in the bio-fluids in a relatively pure form to enable their subsequent use for identification of components that contribute to the plaque formation. In order to isolate cholesterol plaque particles, the plasma or serum samples obtained from atherosclerotic subjects were first centrifuged at 5,000 rpm for 5 min and the supernatants were transferred to new centrifuge tubes. Next, the supernatants were diluted in PBS to make 50% of the serum and used for incubation with cholesterol oligomers/aggregates. Each assay was performed in 1 mL reaction (800 μL of 50% plasma or serum) and 200 μL (30 μg) of the Cholesterol aggregates and the mixtures were incubated at 37° C. for 1 hr After the incubation, the mixture was directly used for sample acquisition using flow cytometer (FACS ARIA II, BD Biosciences, San Jose, Calif.). […] In order to isolate these fractions, three sets of gates were drawn in the acquisition blot to separately sort and isolate High density or high complex cholesterol particles, Low density or low complex cholesterol particles and both High and low density cholesterol particles together.
as §1, §2
(§4) Scaffold (version Scaffold_4.2.1, Proteome Software Inc., Portland, Oreg.) was used to validate MS/MS based peptide and protein identifications. […] Protein probabilities were assigned by the Protein Prophet algorithm (Nesvizhskii, Al et al 2003).

[2] = tested on: High Density cholesterol (Chl Large) plaque particles; parameters: species or system human
Procedure: as §3, §1, §2, §4

[3] = target: T1, Abeta-42 plaque particles (Homo sapiens, UniProt P05067)
T1 construct: Abeta 1-42
Procedure: Next to isolate serum derived Abeta-42 plaque particles, the plasma or serum samples obtained from AD subjects were first centrifuged at 5,000 rpm for 5 min and the supernatants were transferred to new centrifuge tubes. Next, the supernatants were diluted in PBS to make 50% of the serum and plasma samples and used for incubation with Abeta-42 plaque oligomers/aggregates. Each assay was performed in 1 mL reaction (800 μL of 50% plasma or serum) and 200 μL (30 μg) of the Abeta-42 aggregates and the mixtures were incubated at 37° C. for 1 hr. To the mixture Thioflavin S dye (120 μg) was added and the sample was incubated for additional 30 min at 37° C. After the incubation, the mixture was directly used for sample acquisition using flow cytometer (FACS ARIA II, BD Biosciences, San Jose, Calif.). After initial detection of Abeta-42 plaque particles in the acquisition blot, gates were drawn in fluorescent dot blot to separately sort and isolate fluorescently labeled Abeta-42 particles.
as §1, §2
as §4, with “2003). […] Proteins sharing significant peptide evidence were grouped into clusters. Proteins were annotated with GO terms from NCBI (downloaded Jan. 17, 2014).” for “2003).”

[4] = target: T2, alpha-synuclein plaque particles (Homo sapiens, UniProt P37840)
T2 construct: 140 amino acids polypeptide
Procedure: To prepare oligomers/aggregates of human alpha-synuclein (140 amino acids polypeptide), 1 mg of the recombinant alpha-synuclein protein was suspended in 1 mL of PBS and the sample was incubated at 37° C. for 2 hrs. After incubation, all the samples were centrifuged for 5 min. at 5000 rpm to remove precipitate, if any, and the supernatant containing oligomers/aggregates were used in vitro plaque particles formation assay. For detecting alpha-synuclein plaque particles Thioflavin S (Ex/Em=430 nm/550 nm) amyloid binding fluorescent dye (10 μg) was used.
Similarly, to isolate alpha-synuclein plaque particles, diluted plasma or serum samples obtained from AD subjects were used for incubation with alpha-synuclein plaque oligomers/aggregates. Each assay was performed in 1 mL reaction (800 μL of 50% plasma or serum) and 200 μL (30 μg) of the alpha-synuclein aggregates and the mixtures were incubated at 37° C. for 1 hr. To the mixture Thioflavin S dye (120 μg) was added and the sample was incubated for additional 30 min at 37° C. After the incubation, the mixture was directly used for sample acquisition using flow cytometer (FACS ARIA II, BD Biosciences, San Jose, Calif.). After initial detection of alpha-synuclein plaque particles, gates were drawn in the acquisition blot to separately sort and isolate fluorescently labeled alpha-synuclein particles.
as §1, §2
Scaffold (version Scaffold_4.2.1, Proteome Software Inc., Portland, Oreg.) was used to validate MS/MS based peptide and protein identifications.

Row | Molecule | Semi-quantitative analysis of proteins binding to different plaque particles: Tau (Tau plaque particles) | Semi-quantitative analysis of proteins binding to different plaque particles: Chl small [1] | Semi-quantitative analysis of proteins binding to different plaque particles: Chl Large [2] | Semi-quantitative analysis of proteins binding to different plaque particles: Abeta-42 [3] | Semi-quantitative analysis of proteins binding to different plaque particles: Synuclein [4]
1 | Serum paraoxonase/arylesterase (protein) AKLIALTLLGMGLALFRNHQSSYQTRLNALREVQPVELPNCNLVKGIETGSEDLEILPNGLAFISSGLKYPGIKSFNPNSPGKILLMDLNEEDPTVLELGITGSKFDVSSFNPHGISTFTDEDNAMYLLVVNHPDAKSTVELFKFQEEEKSLLHLKTIRHKLLPNLNDIVAVGPEHFYGTNDHYFLDPYLQSWEMYLGLAWSYVVYYSPSEVRVVAEGFDFANGINISPDGKYVYIAELLAHKIHVYEKHANWTLTPLKSLDFNTLVDNISVDPETGDLWVGCHPNGMKIFFYDSENPPASEVLRIQNILTEEPKVTQVYAENGTVLQGSTVASVYKGKLLIGTVFHKALYCEL | 3 | 6 | 5 | 2 | 7
2 | CD5 antigen-like (protein) SPSGVRLVGGLHRCEGRVEVEQKGQWGTVCDDGWDIKDVAVLCRELGCGAASGTPSGILYEPPAEKEQKVLIQSVSCTGTEDTLAQCEQEEVYDCSHDEDAGASCENPESSFSPVPEGVRLADGPGHCKGRVEVKHQNQWYTVCQTGWSLRAAKVVCRQLGCGRAVLTQKRCNKHAYGRKPIWLSQMSCSGREATLQDCPSGPWGKNTCNHDEDTWVECEDPFDLRLVGGDNLCSGRLEVLHKGVWGSVCDDNWGEKEDQVVCKQLGCGKSLSPSFRDRKCYGPGVGRIWLDNVRCSGEEQSLEQCQHRFWGFHDCTHQEDVAVICSG | 3 | 7 | 6 | 4 | 6
3 | C4b-binding protein alpha chain (protein) NCGPPPTLSFAAPMDITLTETRFKTGTTLKYTCLPGYVRSHSTQTLTCNSDGEWVYNTFCIYKRCRHPGELRNGQVEIKTDLSFGSQIEFSCSEGFFLIGSTTSRCEVQDRGVGWSHPLPQCEIVKCKPPPDIRNGRHSGEENFYAYGFSVTYSCDPRFSLLGHASISCTVENETIGVWRPSPPTCEKITCRKPDVSHGEMVSGFGPIYNYKDTIVFKCQKGFVLRGSSVIHCDADSKWNPSPPACEPNSCINLPDIPHASWETYPRPTKEDVYVVGTVLRYRCHPGYKPTTDEPTTVICQKNLRWTPYQGCEALCCPEPKLNNGEITQHRKSRPANHCVYFYGDEISFSCHETSRFSAICQGDGTWSPRTPSCGDICNFPPKIAHGHYKQSSSYSFFKEEIIYECDKGYILVGQAKLSCSYSHWSAPAPQCKALCRKPELVNGRLSVDKDQYVEPENVTIQCDSGYGVVGPQSITCSGNRTWYPEVPKCEWETPEGCEQVLTGKRLMQCLPNPEDVKMALEVYKLSLEIEQLELQRDSARQSTLDKEL | 1 | 8 | 8 | 0 | 7
4 | Angiotensinogen (protein) DRVYIHPFHLVIHNESTCEQLAKANAGKPKDPTFIPAPIQAKTSPVDEKALQDQLVLVAAKLDTEDKLRAAMVGMLANFLGFRIYGMHSELWGVVHGATVLSPTAVFGTLASLYLGALDHTADRLQAILGVPWKDKNCTSRLDAHKVLSALQAVQGLLVAQGRADSQAQLLLSTVVGVFTAPGLHLKQPFVQGLALYTPVVLPRSLDFTELDVAAEKIDRFMQAVTGWKTGCSLMGASVDSTLAFNTYVHFQGKMKGFSLLAEPQEFWVDNSTSVSVPMLSGMGTFQHWSDIQDNFSVTQVPFTESACLLLIQPHYASDLDKVEGLTFQQNSLNWMKKLSPRTIHLTMPQLVLQGSYDLQDLLAQAELPAILHTELNLQKLSNDRIRVGEVLNSIFFELEADEREPTESTQQLNKPEVLEVTLNRPFLFAVYDQSATALHFLGRVANPLSTA | 15 | 9 | 10 | 14 | 7
